From patent US20240092891A1 (SANYOU BIOPHARMACEUTICALS, published 2024)
Where a chain is given by its changes, count along the chain named.

Assays:
[1] = biological target: T1, human CLDN18.1 (human, UniProt P56856 1-261); experiment: flow cytometry with phage supernatant, anti-M13 antibody, on human CLDN18.1-HEK293 cells
T1 construct: Overexpressed on HEK293 cells; also called human CLDN18.1-HEK293
Source text: Firstly, 1×10⁵ human CLDN18.2-HEK293T and human CLDN18.1-HEK293 cells were taken, respectively and centrifuged at a low speed of 500 g, and the supernatant was removed.

[2] = biological target: T2, human CLDN18.2 (human); experiment: flow cytometry on human CLDN18.2-HEK293T cells
T2 construct: also called CLD18A2; huCLDN18.2

[3] = biological target: T2, human CLDN18.2; experiment: cell-based or functional assay
[4] = biological target: T1, human CLDN18.1; experiment: flow cytometry, binding intensity on human CLDN18.1-HEK293 cells at different concentrations
Procedure: Therefore, antibodies (including a high concentration of 100 μg/mL) at different concentrations were used to be incubated with human CLDN18.1-HEK293 in vitro in this example. The method was as described in section 1.3.1, wherein antibodies at different concentrations were incubated with target cells human CLDN18.1-HEK293 at 4° C. for 1 h. Next, the resulting cultures were rinsed three times with the above-mentioned FACS buffer. 0.5 μg (0.5 mg/ml) of PE-labeled goat anti-human IgG Fc antibody (Abcam, ab98596) was added, and the resulting mixture was incubated at 4° C. for 1 h, and then rinsed three times with the FACS buffer.

T1 sequence (P56856 whole entry): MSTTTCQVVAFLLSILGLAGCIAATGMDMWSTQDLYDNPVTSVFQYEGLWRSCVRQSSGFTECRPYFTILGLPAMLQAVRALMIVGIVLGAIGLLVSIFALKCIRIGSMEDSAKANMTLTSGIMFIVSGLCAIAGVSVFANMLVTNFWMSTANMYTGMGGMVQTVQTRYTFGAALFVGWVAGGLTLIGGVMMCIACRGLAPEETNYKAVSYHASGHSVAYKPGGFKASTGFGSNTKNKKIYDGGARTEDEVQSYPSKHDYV

B1: clone NA7-S, VHH displayed on phage (VHH)
VHH: EVQVQESGGGLVQPGGSLRLSCAASGSFFRIVAMGWYRQAPGSQRELVATITRGGSTYYADSMKGRSTISRDNAKNTVYLQMNSLKPEDTAVYYCNVRVEVPFMQPNDYWGHGTQVTVSS
notes: also called NA7-S (phage supernatant); candidate nanobody NA7-S
binding result [1]: no binding

B2: humanized antibody NA7-S-H2 (Fc fusion)
chain: B1 VHH with V4L, Q5V, S43K, Q44G, H112Q, Q115L
notes: not shown: Fc part implied (detected with anti-human IgG Fc; parent molecule in CDC/ADCC)
EC50 [2]: 0.482 µg/mL | binding intensity (MFI) at the highest concentration [2]: 184000 MFI

B3: IMAB362 antibody (antibody, V domains shown)
VH: QVQLQQPGAELVRPGASVKLSCKASGYTFTSYWINWVKQRPGQGLEWIGNIYPSDSYTNYNQKFKDKATLTVDKSSSTAYMQLSSPTSEDSAVYYCTRSWRGNSFDYWGQGTTLTVSS
VL: DIVMTQSPSSLTVTAGEKVTMSCKSSQSLLNSGNQKNYLTWYQQKPGQPPKLLIYWASTRESGVPDRFTGSGSGTDFTLTISSVQAEDLAVYYCQNDYSYPFTFGSGTKLEIKR
EC50 of ADCC cell killing effect (LDH release, human PBMC) on human CLDN18.2-HEK293T cells, run with NA7-S [3]: 0.0862 nM | EC50 of ADCC cell killing effect (LDH release, human PBMC) on human CLDN18.2-HEK293T cells, run with NA8-S [3]: 0.0636 nM | EC50 of CDC cell killing effect (MTS) on human CLDN18.2-HEK293T cells, run with NA4-S [3]: 0.613 nM | EC50 of CDC cell killing effect (MTS) on human CLDN18.2-HEK293T cells, run with NA7-S [3]: 0.628 nM | EC50 of CDC cell killing effect (MTS) on human CLDN18.2-HEK293T cells, run with NA8-S [3]: 1.86 nM | EC50 of CDC cell killing effect (MTS) on human CLDN18.2-KATOIII tumor cells, run with NA7-S [3]: 69.8 nM | EC50 of CDC cell killing effect (MTS) on human CLDN18.2-KATOIII tumor cells, run with NA8-S [3]: 1860 nM | IC50 of Fab-ZAP cell killing (endocytosis, MTS) on CLDN18.2-HEK293T cells, run with NA7-S [3]: 0.128 nM | IC50 of Fab-ZAP cell killing (endocytosis, MTS) on CLDN18.2-HEK293T cells, run with NA8-S [3]: 0.136 nM

B4: humanized antibody NA4-S-H7 (Fc fusion)
chain: EVQLVESGGGLVQPGGSLRLSCAASGSIFSINVMGWYRQAPGKQRELVAGISTGGTTRYADSVKGRFTISRDNAKNTLYLQMNSLRAEDTAVYYCNADLATATSWPVRYLEVWGQGTLVTVSS
notes: as for B2
EC50 [2]: 0.877 µg/mL | binding intensity (MFI) at the highest concentration [2]: 128000 MFI | binding result [4]: no binding (tested: 100 µg/mL)

B5: clone NA4-S, VHH displayed on phage (VHH)
VHH: B4 chain with L4V, V63A, L78V, R86K, A87P, S123A
notes: also called NA4-S (phage supernatant); candidate nanobody NA4-S
binding result [1]: no binding
